Data reported in article PMC3621618, “Comparative measurement of CNP and NT-proCNP in human blood samples: a methodological evaluation” (Journal of Negative Results in Biomedicine, 2013).

Experiments:
[1] = human serum and full blood (EDTA), room temperature, 30 min and 2 hours; CNP-22 EIA; n = 12
Procedure: We studied 12 male volunteers (mean age 29 ± 2 years, normal weight, no drug therapy, no history of cardiovascular or other diseases, 3 smokers). From all investigated subjects informed consent was obtained. Triplets of fasting blood samples were taken from all volunteers at 8 o’clock in the morning. Blood samples were collected using the 7.5 ml S-Monovette® collection system (Sarstedt, Nümbrecht, Germany) containing either clotting activator (Kaolin) for serum samples, sodium-citrate for plasma samples or Potassium–EDTA for full blood samples. All samples for baseline analyses were immediately centrifuged at 2,000 × g for 10 min at 4°C and supernatant was stored at −70°C until analysis. For mid-term analyses (30 minutes or 2 hours), plasma samples were centrifuged at 2,000 × g for 10 min at room temperature. Supernatant was removed and stored at room temperature for 30 min or 2 hours. Following blood clotting, serum samples were processed identically to plasma samples. Supernatant was saved and also stored at room temperature for 30 min or 2 hours. Full blood samples were stored at room temperature without centrifugation. […] The concentration of CNP was measured using the CNP-22 EIA Kit (#EK-012-03, Phoenix Pharmaceuticals, Karlsruhe, Germany) according to the manufacturer’s protocol. […] Data were analyzed using MedCalc® for Windows, Version 10.0.1.0 (MedCalc Software, Mariakerke, Belgium).

[2] = unknown storage conditions of blood samples; ref manufacturer's protocol; cited from earlier work
Procedure: Consequently, the stability of the CNP peptide is most likely not affected by any delay in sample processing for at least two hours. ProCNP has already been reported (manufacturer’s protocol, unknown storage conditions of blood samples) to be stable for at least 2.5 hours. Accordingly, our experiments confirmed the stability of NT-proCNP even at room temperature.

Molecule | stability of CNP in serum and full blood samples [1] | time for which ProCNP is stable [2]
C-type natriuretic peptide [CNP] | stable in serum and in full blood samples for at least two hours at room temperature | –
ProCNP: pro-peptide of CNP, reported stable per the manufacturer's protocol (peptide, UniProt P23582 24-126, looked up, pro-form) pro-form: KPGAPPKVPRTPPAEELAEPQAAGGGQKKGDKAPGGGGANLKGDRSRLLRDLRVDTKSRAAWARLLQEHPNARKYKGANKKGLSKGCFGLKLDRIGSMSGLGC | – | at least 2.5 hours
